# Target: T1, Sox2 C-terminal intrinsically disordered region (C-IDR)
# T1 chain: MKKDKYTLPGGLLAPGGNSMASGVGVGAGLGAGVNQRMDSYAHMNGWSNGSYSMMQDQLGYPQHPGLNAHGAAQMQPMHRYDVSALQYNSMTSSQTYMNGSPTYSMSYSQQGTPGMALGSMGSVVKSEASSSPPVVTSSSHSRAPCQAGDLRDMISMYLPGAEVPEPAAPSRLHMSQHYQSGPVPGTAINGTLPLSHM
# Assay: NMR titration; 15N-labelled C-IDR titrated with unlabelled N-DBD; 1H15N HSQC chemical shift changes of highly perturbed residues fitted to a 1:1 binding equation; 20 mM NaH2PO4, 50 mM NaCl, 5 mM DTT, pH 5.5, 15 °C
# Conditions: both partners purified
binder,measurement,value
"Sox2 N-terminal domain and DBD (N-DBD) (domain or fragment, Limits are not printed. They are inferred from 109 expected HSQC peaks (119 residues minus 9 Pro and the N-terminal Met) and from the C-IDR starting at 120. The NMR sample was 15N(/13C)-labelled or …) not shown",Kd,80 ± 4 µM
